Assay results reported in article doi:10.1101/2024.08.29.610253.

Tests used:
RIM1_C2B (rat) = assay: SEC-MALS
[1] = molecular target: interface II mutations (CC2N and C2B variants, ITC); assay: ITC
[2] = molecular target: liprin-α2_CC2N E380R (human) (UniProt O75334); assay: ITC
liprin-α2_CC2N E380R (human), sequence (O75334 300-404 E380R): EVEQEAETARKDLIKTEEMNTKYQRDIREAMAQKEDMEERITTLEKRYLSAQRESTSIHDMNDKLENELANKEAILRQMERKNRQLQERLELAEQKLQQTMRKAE

stoichiometry N (RIM1_C2B (rat)): 2 | fold decrease in binding affinity [1]: 5 fold | fold decrease in binding affinity [2]: 2 fold
Substance: RIM1_C2B (domain or fragment)
